Measurements: publication PMC11496930 (2024)
Like-named read-outs stand apart in the source and are kept apart here. Blank lines part the entries; values can stand above or below the binder they belong to.

Assays:
ADI-19425 Fab [1] = target: T1, ADI-19425 Fab (human, UniProt P0DOY2 1-106); assay: BLI
ADI-19425 Fab [2] = target: T1, ADI-19425 Fab; assay: BLI; remark: listed apart in the source

koff (ADI-19425 Fab [1]): 0.000442 s⁻¹
B1: 2C1 recombinant IgG (human constant regions) (antibody, V domains shown)
VH: QVQLQQSGAELVRPGASVTLSCKASGYIFTDYEIHWLKQTPVHGLEWIGTSDPETGGFAYTQKFKGKAILTADKSSSTAYMELRSLTSEDSAVYYCTRRPYYGSGAWFAYWGQGTLVTVSA
VL: DIVMTQSHKFMSTSVGDRVSITCKANHDVNIAVAWYQQKPGQSPKLLIYSASYRYTGVPDRFTGSGSGTDFTFTISSVQAEDLAVYYCQQHYDTPRTFGGGTKLEIK

koff (ADI-19425 Fab [2]): 0.000115 s⁻¹
B2: 1D3 recombinant IgG (human constant regions) (antibody, V domains shown)
VH: QVQIQQSGAELMRPGASVKLSCKATGYTFTGYWIEWVKQRPGHGLEWIGEILSGRGTTNYNEKFKGKATFTADTYSNTAYMQLSSLTTGDSAIYYCARGGFLYGDGPFDYWGQGTTLTVSS
VL: DILLTQSPAILSVSPGERVSFSCRASQNIDTHIHWYQQRTNGSPRLLIKYASESISGIPSRFSGSGSGTDFTLTINSVESEDIADYYCQQSNSWPFTFGSGTKLEIK
